According to patent publication US20200181261A1 (Bayer, published 2020):

What was measured:
[1] = biological target: T1, Human CEACAM6-Domain 1-His-I30L (I63L according to SEQ-ID NO: 179) (human); assay: ELISA, domain 1 protein coated
T1 construct: the entry already carries the substitution; also called TPP-8697
T1 chain: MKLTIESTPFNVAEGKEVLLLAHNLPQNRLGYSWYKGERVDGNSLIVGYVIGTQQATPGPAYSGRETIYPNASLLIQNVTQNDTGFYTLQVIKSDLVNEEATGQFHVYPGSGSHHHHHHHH
Protocol: (§1) The proteins were expressed in E. coli, refolded and purified as described in Example 1. Comparative binding activity to domain 1 wild-type protein and the two single mutations was determined by ELISA method. 1.5 ug/ml protein solutions in PBS were coated overnight to 384 Nunc MaxiSorp plates (Sigma, P6491). Plates were washed with PBS/T and blocked with Smart block (CANDOR Bioscience GmbH, 113125). […] After washing with PBS/T, bound antibodies were detected with Anti Human IgG Fc POD (Sigma, A0170) and 10 μM Amplex Red solution (Thermo, A12222). Positive binding signals were detected via Fluorescence (Ex. 535 nm/Em. 590 nm).

[2] = biological target: T2, Human CEACAM6-Domain 1-His-I30F (I63F according to SEQ-ID NO: 179) (human); assay: ELISA, domain 1 protein coated
T2 construct: the entry already carries the substitution; also called TPP-8698
T2 chain: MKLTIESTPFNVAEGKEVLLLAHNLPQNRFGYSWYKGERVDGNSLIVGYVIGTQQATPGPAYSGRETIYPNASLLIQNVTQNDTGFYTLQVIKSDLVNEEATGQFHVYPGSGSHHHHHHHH
Protocol: as §1

[3] = biological target: T3, human CEACAM6, full-length, on cells (human, UniProt P40199 35-320); assay: FACS, KS cells (endogenous CEACAM6)
T3 construct: used both for transfected HeLa cells and for tumor cell lines that express CEACAM6 endogenously; also called TPP-4639; HeLa human CEACAM6
T3 sequence: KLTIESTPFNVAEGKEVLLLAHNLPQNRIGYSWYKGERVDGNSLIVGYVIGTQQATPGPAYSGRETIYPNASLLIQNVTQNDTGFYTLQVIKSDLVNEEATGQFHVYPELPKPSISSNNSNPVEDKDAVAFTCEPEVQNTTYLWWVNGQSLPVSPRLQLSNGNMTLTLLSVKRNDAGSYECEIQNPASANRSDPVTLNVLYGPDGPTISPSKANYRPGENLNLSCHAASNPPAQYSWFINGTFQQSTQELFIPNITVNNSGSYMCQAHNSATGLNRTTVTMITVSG

[4] = biological target: T3, human CEACAM6, full-length, on cells; assay: FACS, T84 cells (endogenous CEACAM6)
Protocol: (§2) For FACS experiments HeLa wild type cells were cultured in RPMI-1640, 10% FCS, while CEACAM-receptor transfected HeLa cells received in addition 0.5% Gentamycin (stock 10 mg/ml, Fa. PAA) and 200 μg/ml Hygromycin B (stock 50 mg/ml, Invitrogen). Cells were washed 3 times with PBS w/o Ca²⁺/Mg²⁺ and were detached from the culture plate non-enzymatically with EDTA dissociation buffer (Gibco). Cells were washed in cold FACS buffer (PBS w/o Ca²⁺/Mg²⁺ and heat-inactivated 3% FCS) and were counted using a countess machine (Invitrogen). 10⁵ cells per well were plated and incubated with the respective primary antibody (5 μg/ml) for 1 h at 4° C. on a plate shaker. […] After 2 times washing the cells were resuspended in 100 μl FACS buffer and were analysed on a FACS Canto II machine (Beckton Dickinson) or a FACS Array (Beckton Dickinson).
(§3) For EC₅₀ analysis, the primary antibodies were used at increasing concentrations in a range from 0.1 nM to 100 nM. Half maximal binding values (EC₅₀) were determined by plotting the median fluorescence intensity signal against the concentration (logarithmic scale). Curve fitting of data was performed using the Graph Pad prism analysis software.
(§4) Anti-CEACAM6 antibodies were also tested for their binding to different cancer cell lines that endogenously express CEACAM6 by FACS analysis. […]

[5] = biological target: T3, human CEACAM6, full-length, on cells; assay: FACS, SNU-C1 cells (endogenous CEACAM6)
Protocol: as §2, §3, §4

[6] = biological target: T3, human CEACAM6, full-length, on cells; assay: FACS, NCI-H1993 cells (endogenous CEACAM6)
Protocol: as §2, §3, §4

[7] = biological target: T3, human CEACAM6, full-length, on cells; assay: FACS, PaTu-8902 cells (endogenous CEACAM6)
Protocol: as §2, §3, §4

- binding result [1]: binds
- binding result [2]: no binding
- EC50 [3]: 0.8 nM
- EC50 [4]: 0.3 nM
- EC50 [5]: 0.5 nM
- EC50 [6]: 0.8 to 1.6 nM
- EC50 [7]: 0.15 nM
B1: TPP-3310 (antibody, human IgG2, kappa)
heavy: QVTLRESGPALVKPTQTLTLTCTFSGFSLSTYGIGVGWIRQPPGKALEWLAHIWWNDNKYYSTSLKTRLTISKDTSKNQVVLTMTNMDPVDTATYYCARISLPYFDYWGQGTTLTVSSASTKGPSVFPLAPCSRSTSESTAALGCLVKDYFPEPVTVSWNSGALTSGVHTFPAVLQSSGLYSLSSVVTVPSSNFGTQTYTCNVDHKPSNTKVDKTVERKCCVECPPCPAPPVAGPSVFLFPPKPKDTLMISRTPEVTCVVVDVSHEDPEVQFNWYVDGVEVHNAKTKPREEQFNSTFRVVSVLTVVHQDWLNGKEYKCKVSNKGLPAPIEKTISKTKGQPREPQVYTLPPSREEMTKNQVSLTCLVKGFYPSDIAVEWESNGQPENNYKTTPPMLDSDGSFFLYSKLTVDKSRWQQGNVFSCSVMHEALHNHYTQKSLSLSPG
light: DIQLTQSPSFLSASVGDRVTITCKASQNVGTAVAWYQQKPGKAPKLLIYSASNRYTGVPSRFSGSGSGTEFTLTISSLQPEDFATYYCQQYSSYPLTFGGGTKVEIKRTVAAPSVFIFPPSDEQLKSGTASVVCLLNNFYPREAKVQWKVDNALQSGNSQESVTEQDSKDSTYSLSSTLTLSKADYEKHKVYACEVTHQGLSSPVTKSFNRGEC
notes: humanized from TPP-2971, human IgG2; also called TPP-2971HU1-hIgG2Kappa
